From publication doi:10.1101/2024.08.25.607996 (bioRxiv, 2024)

Biological target: the molecule itself
Experiment: cryo-EM structure

B1: feline APN ectodomain without the Fc fusion (dimer) (domain or fragment)
chain: DQSKPWNVYRLPKTLIPDSYNVTLRPYLTPNNKGLYVFTGTNIVRFTCKESTNIVIIHSKRLNYTSHQGHMVALSGVGGFHPQPVIVRTELVELTEYLVVHLQEPLVAGRQYEMNSEFQGELADDLAGFYRSEYMENGVKKVLATTHMQATEARKSFPCFDEPAMKATFNITIIHPNNLVALSNMLPRGPSVPFGEDPTWKVTEFETTPIMSTYLLAYIVSEFSYVETRAPSGVLIRIWARPSAINQGHGDYALKVTGPILDFFSQHYDTPYPLNKSDQIALPDFNAGAMENWGLVTYRESALLYDRQSSSSGNQERVVTVIAHELAHQWFGNLVTLEWWNDLWLNEGFASYVEYLGADFAEPTWNLKDLMVLNDVYRVMAVDALASSHPLSTPASEINTPAQISEVFDSISYSKGASVLRMLSNFLTEDLFKMGIASYLHTYKYGNTIYLNLWEHLQQVVDKQPTIKLPDTVSAIMDRWILQMGFPVITVDTQTGTISQQHFLLDPQSVVTRPSQFNYLWIVPISSVRSGSPQAHYWLPGVEKAQNDLFKTTANDWVLLNLNVTGYYLVNYDNENWKKIQTQLQTDLSVIPVINRAQVIHDAFNLASAQKVPVTLALNNTLFLIQETEYMPWQAALSSLSYFKLMFDRSEVYGPMKRYLKKQVTPLFNHFERVTKNWTDHPQTLMDQYSEINAVSTACSYGVPECEKLAATLFAQWKKNPQNNPIHPNLRSTVYCNAIAQGGEEEWNFVWEQFLKAELVNEADKLRGALACSNQVWILNRFLSYTLDPNLIRKQDVTSTLSSISSNVVGQTLVWDFVQSNWKKLFQDYGTGSFSFSNLIQAVTRRFSTEFELQQLEQFKKNNMDTGFGSATRALEQALEKTKANLKWVKENKDVVLRWFTENS
  stoichiometry N: 2
